Reference: patent US20220213176A1 (SHANGHAITECH UNIVERSITY, published 2022)

Target: SARS-CoV-2 spike receptor binding domain, wild-type (S-RBD) (SARS-CoV-2, UniProt P0DTC2 319-541)
Assay: BLI (Octet RED96), biotin S-RBD on SA sensor, 1:1 fit

B1: S-E6 trimer (T4F) (other)
heavy: QVTLRESGPGLVKPSETLSLTCAVSGGSLSSVNYYWSWIRQHPGKGLEWIGYIYYSGSTNYNPSLKSRVTMSLDTSKNQFSLKLSSVTAADTAVYYCATPGAIMGALHIWGQGTLVTVSSASTKGPSVFPLAPSSKSTSGGTAALGCLVKDYFPEPVTVSWNSGALTSGVHTFPAVLQSSGLYSLSSVVTVPSSSLGTQTYICNVNHKPSNTKVDKKVEPPKSGGGGSGGGGSGGGGSPGSGYIPEAPRDGQAYVRKDGEWVLLSTFLGHHHHHH
light: QAVLTQPSSASSTPGQRVIISCSGSSSNIGSNTVSWYQQVPGAAPKLLIYFDYRRPSGVPDRFSGTRSGTSASLGISGLQSEDEADYYCAAWDDSLSAWVFGRGTKLTVLGGLGGLVDYKGQPKAAPSVTLFPPSSEELQANKATLVCLISDFYPGAVTVAWKADSSPVKAGVETTTPSKQSNNKYAASSYLSLTPEQWKSHRSYSCQVTHEGSTVEKTVAPTECS
notes: also called trimer S-E6; trimeric S-E6
Kd: 0.0101 nM
